Measured values published in publication PMC9991925 (2022).

Columns and labels:
[1] = target: recombinant mouse TfR (mouse, UniProt Q62351 1-763); test: ELISA
[2] = target: Fc(aMD4)T3; test: SPR
[3] = target: Fc(aMD4ds)B3 (human, UniProt P01857 104-330 = IgG part); test: SPR
[4] = target: Fc(aMD4)T1 (human, UniProt P01857 104-330 = IgG part); test: SPR
[5] = target: Fc(aMD4ds)T1 (human, UniProt P01857 104-330 = IgG part); test: SPR
[6] = target: Fc(aMD4)M2 (human, UniProt P01857 104-330 = IgG part); test: SPR
[7] = target: Fc(aMD4)B1 (human, UniProt P01857 104-330 = IgG part); test: SPR
[8] = target: Fc(aMD4)B2 (human, UniProt P01857 104-330 = IgG part); test: SPR
[9] = target: Fc(aMD4)T2 (human, UniProt P01857 104-330 = IgG part); test: SPR
[10] = target: Fc(aMD4)B3 (human, UniProt P01857 104-330 = IgG part); test: SPR

recombinant mouse TfR, sequence (Q62351 89-763): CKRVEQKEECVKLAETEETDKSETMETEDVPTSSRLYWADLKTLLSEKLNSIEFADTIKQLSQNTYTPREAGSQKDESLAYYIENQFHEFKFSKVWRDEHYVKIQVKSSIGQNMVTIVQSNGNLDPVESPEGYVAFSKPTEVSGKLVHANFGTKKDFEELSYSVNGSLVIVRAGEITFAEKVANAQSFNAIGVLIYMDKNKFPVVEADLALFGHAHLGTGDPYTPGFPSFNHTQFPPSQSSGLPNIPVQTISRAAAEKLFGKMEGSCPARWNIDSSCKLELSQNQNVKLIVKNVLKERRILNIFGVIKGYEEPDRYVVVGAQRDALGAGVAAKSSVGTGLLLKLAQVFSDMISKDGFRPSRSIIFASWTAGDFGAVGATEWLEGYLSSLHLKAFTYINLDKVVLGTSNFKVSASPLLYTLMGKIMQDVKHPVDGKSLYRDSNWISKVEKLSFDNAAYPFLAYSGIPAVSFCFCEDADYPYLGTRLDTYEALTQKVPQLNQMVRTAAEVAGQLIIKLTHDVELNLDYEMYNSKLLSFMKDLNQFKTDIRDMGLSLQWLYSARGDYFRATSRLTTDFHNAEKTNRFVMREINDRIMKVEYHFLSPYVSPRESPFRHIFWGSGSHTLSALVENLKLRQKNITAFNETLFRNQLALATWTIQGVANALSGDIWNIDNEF

Kd [1] | Kd [2] | Kd [3] | Kd [4] | Kd [5] | Kd [6] | Kd [7] | Kd [8] | Kd [9] | Kd [10] | Binder
30.8 nM | – | – | – | – | – | – | – | – | – | sTfR(aMD4) (antibody, V domains shown) VH: EVQLVESGGGLVQPGNSLTLSCVASGFTFSNYGMHWIRQAPKKGLEWIAMIYYDSSKMNYADTVKGRFTISRDNSKNTLYLEMNSLRSEDTAMYYCAVPTSHYVVDVWGQGVSVTVSS VL: DIQMTQSPASLSASLEEIVTITCQASQDIGNWLAWYQQKPGKSPQLLIYGATSLADGVPSRFSGSRSGTQFSLKISRVQVEDIGIYYCLQAYNTPWTFGGGTKLELK
0.36 nM | – | – | – | – | – | – | – | – | – | dTfR(aMD4) (antibody, V domains shown) VH: EVQLVESGGGLVQPGNSLTLSCVASGFTFSNYGMHWIRQAPKKGLEWIAMIYYDSSKMNYADTVKGRFTISRDNSKNTLYLEMNSLRSEDTAMYYCAVPTSHYVVDVWGQGVSVTVSS VL: DIQMTQSPASLSASLEEIVTITCQASQDIGNWLAWYQQKPGKSPQLLIYGATSLADGVPSRFSGSRSGTQFSLKISRVQVEDIGIYYCLQAYNTPWTFGGGTKLELK
– | 652 nM | 3.7 nM | 75.8 nM | 73.4 nM | 18.9 nM | 10.8 nM | 79.1 nM | 401 nM | 4 nM | ectodomain fragment of human Met (MetECD, 1-931), biotinylated (domain or fragment, biotin on the biotin acceptor sequence (BirA-mediated)) ECKEALAKSEMNVNMKYQLPNFTAETPIQNVILHEHHIFLGATNYIYVLNEEDLQKVAEYKTGPVLEHPDCFPCQDCSSKANLSGGVWKDNINMALVVDTYYDDQLISCGSVNRGTCQRHVFPHNHTADIQSEVHCIFSPQIEEPSQCPDCVVSALGAKVLSSVKDRFINFFVGNTINSSYFPDHPLHSISVRRLKETKDGFMFLTDQSYIDVLPEFRDSYPIKYVHAFESNNFIYFLTVQRETLDAQTFHTRIIRFCSINSGLHSYMEMPLECILTEKRKKRSTKKEVFNILQAAYVSKPGAQLARQIGASLNDDILFGVFAQSKPDSAEPMDRSAMCAFPIKYVNDFFNKIVNKNNVRCLQHFYGPNHEHCFNRTLLRNSSGCEARRDEYRTEFTTALQRVDLFMGQFSEVLLTSISTFIKGDLTIANLGTSEGRFMQVVVSRSGPSTPHVNFLLDSHPVSPEVIVEHTLNQNGYTLVITGKKITKIPLNGLGCRHFQSCSQCLSAPPFVQCGWCHDKCVRSEECLSGTWTQQICLPAIYKVFPNSAPLEGGTRLTICGWDFGFRRNNKFDLKKTRVLLGNESCTLTLSESTMNTLKCTVGPAMNKHFNMSIIISNGHGTTQYSTFSYVDPVITSISPKYGPMAGGTLLTLTGNYLNSGNSRHISIGGKTCTLKSVSNSILECYTPAQTISTEFAVKLKIDLANRETSIFSYREDPIVYEIHPTKSFISGGSTITGVGKNLNSVSVPRMVINVHEAGRNFTVACQHRSNSEIICCTTPSLQQLNLQLPLKTKAFFMLDGILSKYFDLIYVHNPVFKPFEKPVMISMGNENVLEIKGNDIDPEAVKGEVLKVGNKSCENIHLHSEAVLCTVPNDLLKLNSELNIEWKQAISSTVLGKVIVQPDQNF
